T1: human TL1A extracellular domain with N-terminal HIS and FLAG tag (human, UniProt O95150 72-251)
T1 construct: whole entry named. ~70 kDa fraction purified by gel filtration
T1 sequence: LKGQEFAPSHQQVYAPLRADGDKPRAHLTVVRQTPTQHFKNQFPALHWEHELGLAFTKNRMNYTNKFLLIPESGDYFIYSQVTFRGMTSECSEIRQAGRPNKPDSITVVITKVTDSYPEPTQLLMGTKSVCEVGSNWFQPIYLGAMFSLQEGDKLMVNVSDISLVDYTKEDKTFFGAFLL

T2: human TL1A extracellular domain with N-terminal HIS and FLAG tag (human) (UniProt O95150)
T2 sequence: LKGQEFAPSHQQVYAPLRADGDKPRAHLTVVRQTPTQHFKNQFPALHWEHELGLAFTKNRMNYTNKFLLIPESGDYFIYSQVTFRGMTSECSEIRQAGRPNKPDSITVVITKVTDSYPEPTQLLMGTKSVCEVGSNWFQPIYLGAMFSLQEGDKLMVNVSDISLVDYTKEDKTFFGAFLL


Legend:
[1] = biological target: T1, human TL1A extracellular domain with …; assay: SPR run 2; purified antibody on Protein A; TL1A 10 ug/mL; timepoint 590
Source text: (§1) 1.5. Antibody expression and antigen binding as determined by SPR. Using a CM5 sensor chip (GE Healthcare) Protein A (Pierce) was coupled to the chip surface using an amine coupling kit (GE Healthcare). Protein A was coupled on flow cell 1 and 2 (or alternatively 3 and 4) using a BIACORE® T200. […] The amount of supernatant or purified protein (as well as the concentration) injected during the capture stage varied between runs and is specified in the header of the Tables 3-11. At the end of injection of the supernatant or purified antibody the change in response units was measured. This value was reported as Capture Level in Tables 3-11. […] The response units were measured prior to the end of the dissociation phase. […] The sensorgrams were double referenced (flow cell 2 is subtracted from flow cell 1 and a buffer blank). As there were a large number of antibody variants to screen, these were screened across different runs (Tables 3-11). […] A summary of the conditions used in each run is below:
(§2) 2.1. […] In some experiment the antibodies were purified using Protein A chromatography (See 1.4) and purified antibodies were used in BIACORE® (GE Healthcare) experiments.

[2] = biological target: T1, human TL1A extracellular domain with …; assay: SPR run 2; purified antibody on Protein A; TL1A 10 ug/mL; timepoint 44
Source text: as §1, §2

[3] = biological target: T1, human TL1A extracellular domain with …; assay: SPR run 2; supernatant on Protein A; TL1A 10 ug/mL; timepoint 220
Summary of the method: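 Surface plasmon resonance on a Biacore T200 was used, with variants spread over several runs. Antibodies were captured via immobilized Protein A, and their capture level was recorded. Sensorgrams were double-referenced, and the antigen response was read near the end of dissociation.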

[4] = biological target: T1, human TL1A extracellular domain with …; assay: SPR run 2; supernatant on Protein A; TL1A 10 ug/mL; timepoint 44
Summary of the method: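 The capture level was the response change at the end of loading, which varied by run. Antigen response was read before dissociation ended, double-referenced against a reference flow cell and a buffer blank.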

[5] = biological target: T2, human TL1A extracellular domain with N-terminal HIS and FLAG tag (human); assay: cell-based or functional assay

Binder	TL1A Binding Level (Late) [1]	TL1A Binding Level (Early) [2]	TL1A Binding Level (Late) [3]	TL1A Binding Level (Early) [4]	Antibody IC50, TL1A induced caspase potency assay in TF-1 cells [5]	Fold improvement over 320-179, TL1A induced caspase potency assay in TF-1 cells [5]
320-199 (antibody, human IgG1, name in Kabat numbering, V domains shown, human IgG1, lambda) VH: QVQLVQSGAEVKKPGASVKVSCKASGYTFTSYDINWVRQAPGQGLEWMGWLNPNSGNTGYAQKFQGRVTMTADRSTSTAYMELSSLRSEDTAVYYCAREVPETAAFEYWGQGTLVTVSS VL: QSVLTQPPSVSGAPGQRVTISCWSSSSDIGAGLGVHWYQQLPGTAPKLLIEGYYNRPSGVPDRFSGSKSGTSASLTITGLLPEDEGDYYCQSYDGTLSALFGGGTKLTVLG	85 RU	97 RU	233 RU	251 RU	–	–
320-211 (antibody, human IgG1, name in Kabat numbering, V domains shown, human IgG1, lambda) VH: QVQLVQSGAEVKKPGASVKVSCKASGYTFTSYDINWVRQAPGQGLEWMGWLNPNSGNTGYAQKFQGRVTMTADRSTSTAYMELSSLRSEDTAVYYCAREVPETAAFEYWGQGTLVTVSS VL: QSVLTQPPSVSGAPGQRVTISCTSDSSDIGAGLGVHWYQQLPGTAPKLLIEGYYNRPSGVPDRFSGSKSGTSASLTITGLLPEDEGDYYCQSYDGTLSALFGGGTKLTVLG	64 RU	80 RU	164 RU	206 RU	0.01 µg/mL	3 fold
320-213 (antibody, human IgG1, name in Kabat numbering, V domains shown, human IgG1, lambda) VH: QVQLVQSGAEVKKPGASVKVSCKASGYTFTSYDINWVRQAPGQGLEWMGWLNPNSGNTGYAQKFQGRVTMTADRSTSTAYMELSSLRSEDTAVYYCAREVPETAAFEYWGQGTLVTVSS VL: QSVLTQPPSVSGAPGQRVTISCTSKSSDIGAGLGVHWYQQLPGTAPKLLIEGYYNRPSGVPDRFSGSKSGTSASLTITGLLPEDEGDYYCQSYDGTLSALFGGGTKLTVLG	65 RU	79 RU	194 RU	218 RU	0.07 µg/mL	0 fold
320-218 (antibody, human IgG1, name in Kabat numbering, V domains shown, human IgG1, lambda) VH: QVQLVQSGAEVKKPGASVKVSCKASGYTFTSYDINWVRQAPGQGLEWMGWLNPNSGNTGYAQKFQGRVTMTADRSTSTAYMELSSLRSEDTAVYYCAREVPETAAFEYWGQGTLVTVSS VL: QSVLTQPPSVSGAPGQRVTISCTSSQSDIGAGLGVHWYQQLPGTAPKLLIEGYYNRPSGVPDRFSGSKSGTSASLTITGLLPEDEGDYYCQSYDGTLSALFGGGTKLTVLG	80 RU	92 RU	218 RU	239 RU	–	–
320-203 (antibody, human IgG1, name in Kabat numbering, V domains shown, human IgG1, lambda) VH: QVQLVQSGAEVKKPGASVKVSCKASGYTFTSYDINWVRQAPGQGLEWMGWLNPNSGNTGYAQKFQGRVTMTADRSTSTAYMELSSLRSEDTAVYYCAREVPETAAFEYWGQGTLVTVSS VL: QSVLTQPPSVSGAPGQRVTISCTDSSSDIGAGLGVHWYQQLPGTAPKLLIEGYYNRPSGVPDRFSGSKSGTSASLTITGLLPEDEGDYYCQSYDGTLSALFGGGTKLTVLG	35 RU	65 RU	24 RU	61 RU	–	–
320-201 (antibody, human IgG1, name in Kabat numbering, V domains shown, human IgG1, lambda) VH: QVQLVQSGAEVKKPGASVKVSCKASGYTFTSYDINWVRQAPGQGLEWMGWLNPNSGNTGYAQKFQGRVTMTADRSTSTAYMELSSLRSEDTAVYYCAREVPETAAFEYWGQGTLVTVSS VL: QSVLTQPPSVSGAPGQRVTISCTASSSDIGAGLGVHWYQQLPGTAPKLLIEGYYNRPSGVPDRFSGSKSGTSASLTITGLLPEDEGDYYCQSYDGTLSALFGGGTKLTVLG	57 RU	73 RU	252 RU	274 RU	0.005 µg/mL	2 fold
320-205 (antibody, human IgG1, name in Kabat numbering, V domains shown, human IgG1, lambda) VH: QVQLVQSGAEVKKPGASVKVSCKASGYTFTSYDINWVRQAPGQGLEWMGWLNPNSGNTGYAQKFQGRVTMTADRSTSTAYMELSSLRSEDTAVYYCAREVPETAAFEYWGQGTLVTVSS VL: QSVLTQPPSVSGAPGQRVTISCTKSSSDIGAGLGVHWYQQLPGTAPKLLIEGYYNRPSGVPDRFSGSKSGTSASLTITGLLPEDEGDYYCQSYDGTLSALFGGGTKLTVLG	51 RU	70 RU	271 RU	290 RU	0.02 µg/mL	2 fold

Further lines, results first:

TL1A Binding Level (Late) [1]	TL1A Binding Level (Early) [2]	TL1A Binding Level (Late) [3]	TL1A Binding Level (Early) [4]	Antibody IC50, TL1A induced caspase potency assay in TF-1 cells [5]	Fold improvement over 320-179, TL1A induced caspase potency assay in TF-1 cells [5]	Binder
89 RU	99 RU	207 RU	225 RU	–	–	320-221 (antibody, human IgG1, name in Kabat numbering, V domains shown, human IgG1, lambda) VH: QVQLVQSGAEVKKPGASVKVSCKASGYTFTSYDINWVRQAPGQGLEWMGWLNPNSGNTGYAQKFQGRVTMTADRSTSTAYMELSSLRSEDTAVYYCAREVPETAAFEYWGQGTLVTVSS VL: QSVLTQPPSVSGAPGQRVTISCTSSKSDIGAGLGVHWYQQLPGTAPKLLIEGYYNRPSGVPDRFSGSKSGTSASLTITGLLPEDEGDYYCQSYDGTLSALFGGGTKLTVLG
8 RU	10 RU	221 RU	240 RU	–	–	320-237 (antibody, human IgG1, name in Kabat numbering, V domains shown, human IgG1, lambda) VH: QVQLVQSGAEVKKPGASVKVSCKASGYTFTSYDINWVRQAPGQGLEWMGWLNPNSGNTGYAQKFQGRVTMTADRSTSTAYMELSSLRSEDTAVYYCAREVPETAAFEYWGQGTLVTVSS VL: QSVLTQPPSVSGAPGQRVTISCTSSSSKIGAGLGVHWYQQLPGTAPKLLIEGYYNRPSGVPDRFSGSKSGTSASLTITGLLPEDEGDYYCQSYDGTLSALFGGGTKLTVLG
16 RU	48 RU	235 RU	255 RU	–	–	320-233 (antibody, human IgG1, name in Kabat numbering, V domains shown, human IgG1, lambda) VH: QVQLVQSGAEVKKPGASVKVSCKASGYTFTSYDINWVRQAPGQGLEWMGWLNPNSGNTGYAQKFQGRVTMTADRSTSTAYMELSSLRSEDTAVYYCAREVPETAAFEYWGQGTLVTVSS VL: QSVLTQPPSVSGAPGQRVTISCTSSSSAIGAGLGVHWYQQLPGTAPKLLIEGYYNRPSGVPDRFSGSKSGTSASLTITGLLPEDEGDYYCQSYDGTLSALFGGGTKLTVLG
6 RU	5 RU	232 RU	254 RU	–	–	320-236 (antibody, human IgG1, name in Kabat numbering, V domains shown, human IgG1, lambda) VH: QVQLVQSGAEVKKPGASVKVSCKASGYTFTSYDINWVRQAPGQGLEWMGWLNPNSGNTGYAQKFQGRVTMTADRSTSTAYMELSSLRSEDTAVYYCAREVPETAAFEYWGQGTLVTVSS VL: QSVLTQPPSVSGAPGQRVTISCTSSSSHIGAGLGVHWYQQLPGTAPKLLIEGYYNRPSGVPDRFSGSKSGTSASLTITGLLPEDEGDYYCQSYDGTLSALFGGGTKLTVLG

Source: US20170081400A1 (CEPHALON, published 2017)
